Measurements taken from patent US11407811B2, “Fusion protein, preparation method therefor and use thereof” (JIANGSU RONGTAI BIOTECH CO., LTD., priority 2017, dated 2022).

What was measured:
[1] = system: cervical cancer cell Hela; experiment: MTT assay, proliferation of cervical cancer cell Hela; assay type: cell-based
Description: The MTT assay was used to detect the inhibitory effect of the integrin blocker fusion protein obtained in Example 1 on the proliferation of various tumor cells, including melanoma cell B16F10, gastric cancer cell MGC-803, lung cancer cell A549, liver cancer cell Hep-G2, breast cancer cell MDA-MB-231, colon cancer cell HCT-116, human glioma U87, and cervical cancer cell Hela.
The tumor cells were cultured in a 5% CO2 incubator at 37° C. to a density of 90% or more, and collected by trypsinization. The cells were resuspended in the culture liquid and counted under a microscope. The cell concentration was adjusted to 3.0×10^4 cells/mL. The cell suspension was inoculated into a 96-well plate at 100 μL per well and cultured overnight in a 5% CO2 incubator at 37° C. […] After the cells were fully adhered, each dilution was added to a 96-well plate at 100 μL per well, respectively. […] 20 μL of 5 mg/mL MTT was added to each well of a 96-well plate, and incubation was continued for 4 hours. The medium was aspirated and 100 μL of DMSO per well were added to dissolve. The absorbance was measured at 570 nm with a microplate reader with a reference wavelength of 630 nm, and the proliferation inhibition (PI) was calculated. The formula is as follows: […]
where Ntest is the OD value of the test group and Ncontrol is the OD value of the blank control group.
The test was repeated 5 times independently. The results obtained from the test were calculated as mean±SD, and statistical t-test was performed. P<0.05 was considered as a significant difference, and P<0.01 was considered as an extremely significant difference.

[2] = system: diabetic retinopathy rat model; experiment: Neovascularization in diabetic retinopathy rat model (STZ); assay type: in vivo; details: 100 μg dose, intravitreal injection
Description: The experimental diabetic rat model was established with streptozotocin STZ. STZ was dissolved in 0.1 mol/L citrate buffer at pH 4.5 to prepare a 2% solution. All experimental Wistar rats were fasted for 12 h before injection, and each rat was intraperitoneally injected with a 2% STZ solution at a dose of 65 mg/kg. After the injection, the rats were fed in single cages, and urine sugar and blood sugar were detected at the 48th hour. When urine sugar was +++ or above, and blood glucose was higher than 16.7 mmol/L, the model establishment requirement is reached. The diabetic retinopathy model was successfully established by detecting blood glucose, urine glucose, and urine volume and retinal VEGF immunohistochemistry.
15 rats were randomly divided into […], which were labeled as a control group, and fusion protein I, protein II, protein III, protein IV and protein V treatment groups. The administration was performed via intravitreal injection once every 5 days for 2 weeks, in which the control group was injected with physiological saline (0.1 mL), and the fusion protein I, protein II, protein III, protein IV, and protein V were all administered with 100 μg (0.1 mL). Observation was performed on week 4, week 8, and week 12.

B1: Protein II: IgG2-Fc linked to antiangiogenesis polypeptide EDSM-Y via a flexible linker; SEQ ID NO: 17 (protein)
chain: ERKCCVECPPCPAPPVAGPSVFLFPPKPKDTLMISRTPEVTCVVVDVSHEDPEVQFNWYVDGVEVHNAKTKPREEQFNSTFRVVSVLTVVHQDWLNGKEYKCKVSNKGLPAPIEKTISKTKGQPREPQVYTLPPSREEMTKNQVSLTCLVKGFYPSDISVEWESNGQPENNYKTTPPMLDSDGSFFLYSKLTVDKSRWQQGNVFSCSVMHEALHNHYTQKSLSLSPGKGGGGSGGGGSGGGGSFQPVLHLVALNSPLSGGMRGIRGADFQCFQQARAVGLAGTFRAGGGGRGD
A570 nm/A630 nm ([1]; dose 1 μg/mL): 0.7798 ± 0.0386 | PI (%) ([1]; dose 1 μg/mL): 2.43% | A570 nm/A630 nm ([1]; dose 2 μg/mL): 0.7412 ± 0.0407 | PI (%) ([1]; dose 2 μg/mL): 7.26% | A570 nm/A630 nm ([1]; dose 4 μg/mL): 0.6946 ± 0.0272 | PI (%) ([1]; dose 4 μg/mL): 13.09% | A570 nm/A630 nm ([1]; dose 8 μg/mL): 0.6312 ± 0.0313 | PI (%) ([1]; dose 8 μg/mL): 21.02% | A570 nm/A630 nm ([1]; dose 16 μg/mL): 0.5418 ± 0.0286 | PI (%) ([1]; dose 16 μg/mL): 32.21% | A570 nm/A630 nm ([1]; dose 32 μg/mL): 0.4788 ± 0.0262 | PI (%) ([1]; dose 32 μg/mL): 40.09% | A570 nm/A630 nm ([1]; dose 64 μg/mL): 0.4023 ± 0.0314 | PI (%) ([1]; dose 64 μg/mL): 49.66% | PI (%) ([1]; dose 64 μg/mL, listed as protein II): about 45% | A570 nm/A630 nm ([1]; dose 128 μg/mL): 0.2878 ± 0.0275 | PI (%) ([1]; dose 128 μg/mL): 63.99% | A570 nm/A630 nm ([1]; dose 256 μg/mL): 0.1748 ± 0.0303 | PI (%) ([1]; dose 256 μg/mL): 78.13% | therapeutic effect on diabetic retinopathy [2]: a certain therapeutic effect on diabetic retinopathy
